According to patent US20260242735A1:

Tests used:
[1] = target: human CD33 I47L (human) (UniProt P20138); test: flow cytometry on transfected cells, IgG
[2] = target: human CD33 I47Y (human) (UniProt P20138); test: flow cytometry on transfected cells, IgG
[3] = target: human CD33 T42P (human) (UniProt P20138); test: flow cytometry on transfected cells, IgG
[4] = target: human CD33 P46D (human) (UniProt P20138); test: flow cytometry on transfected cells, IgG
[5] = target: human CD33 I47T (human) (UniProt P20138); test: flow cytometry on transfected cells, IgG
[6] = target: human CD33 F44Q (human) (UniProt P20138); test: flow cytometry on transfected cells, IgG
[7] = target: human CD33 Y50P (human) (UniProt P20138); test: flow cytometry on transfected cells, IgG
[8] = target: human CD33 I47V (human) (UniProt P20138); test: flow cytometry on transfected cells, IgG
human CD33 I47V (human), sequence (P20138 18-364 I47V limits assumed): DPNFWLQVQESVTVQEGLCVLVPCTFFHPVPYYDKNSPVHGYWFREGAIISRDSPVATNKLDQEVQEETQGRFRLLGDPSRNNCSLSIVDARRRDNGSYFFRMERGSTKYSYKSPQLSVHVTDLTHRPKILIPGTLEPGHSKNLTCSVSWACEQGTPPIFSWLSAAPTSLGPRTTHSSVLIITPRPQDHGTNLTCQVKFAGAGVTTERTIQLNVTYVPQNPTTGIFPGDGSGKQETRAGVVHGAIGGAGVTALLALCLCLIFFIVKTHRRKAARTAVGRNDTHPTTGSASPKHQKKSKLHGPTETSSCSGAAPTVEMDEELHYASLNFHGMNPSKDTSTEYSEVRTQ

[9] = target: human CD33 I47S (human) (UniProt P20138); test: flow cytometry on transfected cells, IgG
[10] = target: human CD33 Y49G (human) (UniProt P20138); test: flow cytometry on transfected cells, IgG
human CD33 Y49G (human), sequence (P20138 18-364 Y49G limits assumed): as the sequence (P20138 18-364 I47V limits assumed) above, with V30I, Y32G counted along it

[11] = target: human CD33 F44H (human) (UniProt P20138); test: flow cytometry on transfected cells, IgG
[12] = target: human CD33 Y49Q (human) (UniProt P20138); test: flow cytometry on transfected cells, IgG
human CD33 Y49Q (human), sequence (P20138 18-364 Y49Q limits assumed): as the sequence (P20138 18-364 I47V limits assumed) above, with V30I, Y32Q counted along it

[13] = target: human CD33 Y49I (human) (UniProt P20138); test: flow cytometry on transfected cells, IgG
[14] = target: human CD33 I47F (human) (UniProt P20138); test: flow cytometry on transfected cells, IgG
[15] = target: human CD33 P48S (human) (UniProt P20138); test: flow cytometry on transfected cells, IgG
[16] = target: human CD33 P48I (human) (UniProt P20138); test: flow cytometry on transfected cells, IgG
human CD33 P48I (human), sequence (P20138 18-364 P48I limits assumed): as the sequence (P20138 18-364 I47V limits assumed) above, with V30I, P31I counted along it

[17] = target: human CD33 P46H (human) (UniProt P20138); test: flow cytometry on transfected cells, IgG
[18] = target: human CD33 I47N (human) (UniProt P20138); test: flow cytometry on transfected cells, IgG
[19] = target: human CD33 P48W (human) (UniProt P20138); test: flow cytometry on transfected cells, IgG
[20] = target: human CD33 F43V (human) (UniProt P20138); test: flow cytometry on transfected cells, IgG
[21] = target: human CD33 I47E (human) (UniProt P20138); test: flow cytometry on transfected cells, IgG
[22] = target: human CD33 P46S (human) (UniProt P20138); test: flow cytometry on transfected cells, IgG
human CD33 P46S (human), sequence (P20138 18-364 P46S limits assumed): as the sequence (P20138 18-364 I47V limits assumed) above, with P29S, V30I counted along it

[23] = target: human CD33 P48G (human) (UniProt P20138); test: flow cytometry on transfected cells, IgG
[24] = target: human CD33 Y50I (human) (UniProt P20138); test: flow cytometry on transfected cells, IgG
human CD33 Y50I (human), sequence (P20138 18-364 Y50I limits assumed): as the sequence (P20138 18-364 I47V limits assumed) above, with V30I, Y33I counted along it

[25] = target: human CD33 P46Y (human) (UniProt P20138); test: flow cytometry on transfected cells, IgG
[26] = target: human CD33 F44I (human) (UniProt P20138); test: flow cytometry on transfected cells, IgG
human CD33 F44I (human), sequence (P20138 18-364 F44I limits assumed): as the sequence (P20138 18-364 I47V limits assumed) above, with F27I, V30I counted along it

[27] = target: human CD33 F44V (human) (UniProt P20138); test: flow cytometry on transfected cells, IgG
[28] = target: human CD33 Y50R (human) (UniProt P20138); test: flow cytometry on transfected cells, IgG
human CD33 Y50R (human), sequence (P20138 18-364 Y50R limits assumed): as the sequence (P20138 18-364 I47V limits assumed) above, with V30I, Y33R counted along it

[29] = target: human CD33 Y49D (human) (UniProt P20138); test: flow cytometry on transfected cells, IgG
[30] = target: human CD33 Y49L (human) (UniProt P20138); test: flow cytometry on transfected cells, IgG
human CD33 Y49L (human), sequence (P20138 18-364 Y49L limits assumed): as the sequence (P20138 18-364 I47V limits assumed) above, with V30I, Y32L counted along it

[31] = target: human CD33 I47Q (human) (UniProt P20138); test: flow cytometry on transfected cells, IgG
human CD33 I47Q (human), sequence (P20138 18-364 I47Q limits assumed): as the sequence (P20138 18-364 I47V limits assumed) above, with V30Q counted along it

[32] = target: human CD33 P46I (human) (UniProt P20138); test: flow cytometry on transfected cells, IgG
[33] = target: human CD33 P48K (human) (UniProt P20138); test: flow cytometry on transfected cells, IgG
[34] = target: human CD33 Y50L (human) (UniProt P20138); test: flow cytometry on transfected cells, IgG
[35] = target: human CD33 I47G (human) (UniProt P20138); test: flow cytometry on transfected cells, IgG
[36] = target: human CD33 Y49S (human) (UniProt P20138); test: flow cytometry on transfected cells, IgG
[37] = target: human CD33 Y50D (human) (UniProt P20138); test: flow cytometry on transfected cells, IgG
[38] = target: human CD33 P48Y (human) (UniProt P20138); test: flow cytometry on transfected cells, IgG
[39] = target: human CD33 Y50H (human) (UniProt P20138); test: flow cytometry on transfected cells, IgG
human CD33 Y50H (human), sequence (P20138 18-364 Y50H limits assumed): as the sequence (P20138 18-364 I47V limits assumed) above, with V30I, Y33H counted along it

[40] = target: human CD33 Y49V (human) (UniProt P20138); test: flow cytometry on transfected cells, IgG
[41] = target: human CD33 P48L (human) (UniProt P20138); test: flow cytometry on transfected cells, IgG
[42] = target: human CD33 F44T (human) (UniProt P20138); test: flow cytometry on transfected cells, IgG
[43] = target: human CD33 P48N (human) (UniProt P20138); test: flow cytometry on transfected cells, IgG
[44] = target: human CD33 Y49T (human) (UniProt P20138); test: flow cytometry on transfected cells, IgG
[45] = target: human CD33 T42K (human) (UniProt P20138); test: flow cytometry on transfected cells, IgG
[46] = target: human CD33 P48H (human) (UniProt P20138); test: flow cytometry on transfected cells, IgG
[47] = target: human wild-type CD33 (human) (UniProt P20138); test: flow cytometry, IgG at 0.25 ug/ml on HEK293-T cells expressing CD33 against vector alone
human wild-type CD33 (human), sequence (P20138 18-364 limits assumed): as the sequence (P20138 18-364 I47V limits assumed) above, with V30I counted along it

human CD33 I47Y (human), sequence (P20138 18-364 I47Y limits assumed): as the sequence (P20138 18-364 I47V limits assumed) above, with V30Y counted along it
human CD33 P46D (human), sequence (P20138 18-364 P46D limits assumed): as the sequence (P20138 18-364 I47V limits assumed) above, with P29D, V30I counted along it

**Q.** For Refmab #7 (WM53) (antibody), which Mean % WT Binding [1] is on record?
**A.** 37.4 % WT binding

**Q.** What about the Mean % WT Binding [2] of the same substance?
**A.** 79.6 % WT binding

**Q.** And the Mean % WT Binding [3]?
**A.** 15.9 % WT binding

**Q.** What about the Mean % WT Binding [4] of the same substance?
**A.** 15.9 % WT binding

**Q.** And the Mean % WT Binding [5]?
**A.** 32.7 % WT binding

**Q.** What about the Mean % WT Binding [6] of the same substance?
**A.** 74.8 % WT binding

**Q.** What about the Mean % WT Binding [7] of the same substance?
**A.** 0.4 % WT binding

**Q.** And the Mean % WT Binding [8]?
**A.** 97.4 % WT binding

**Q.** And the Mean % WT Binding [9]?
**A.** 33.6 % WT binding

**Q.** What about the Mean % WT Binding [10] of the same substance?
**A.** 20.5 % WT binding

**Q.** What about the Mean % WT Binding [11] of the same substance?
**A.** 82.4 % WT binding

**Q.** What about the Mean % WT Binding [12] of the same substance?
**A.** 0.7 % WT binding

**Q.** What about the Mean % WT Binding [13] of the same substance?
**A.** 0.2 % WT binding

**Q.** What about the Mean % WT Binding [14] of the same substance?
**A.** 85.2 % WT binding

**Q.** And the Mean % WT Binding [15]?
**A.** 2.6 % WT binding

**Q.** What about the Mean % WT Binding [16] of the same substance?
**A.** 0.1 % WT binding

**Q.** And the Mean % WT Binding [17]?
**A.** 94.3 % WT binding

**Q.** And the Mean % WT Binding [18]?
**A.** 4.7 % WT binding

**Q.** What about the Mean % WT Binding [19] of the same substance?
**A.** 0.7 % WT binding

**Q.** And the Mean % WT Binding [20]?
**A.** 73.4 % WT binding

**Q.** What about the Mean % WT Binding [21] of the same substance?
**A.** 3.9 % WT binding

**Q.** What about the Mean % WT Binding [22] of the same substance?
**A.** 96.4 % WT binding

**Q.** And the Mean % WT Binding [23]?
**A.** 13.3 % WT binding

**Q.** And the Mean % WT Binding [24]?
**A.** 5.1 % WT binding

**Q.** And the Mean % WT Binding [25]?
**A.** 8.6 % WT binding

**Q.** And the Mean % WT Binding [26]?
**A.** 46.1 % WT binding

**Q.** What about the Mean % WT Binding [27] of the same substance?
**A.** 36.1 % WT binding

**Q.** And the Mean % WT Binding [28]?
**A.** 1.7 % WT binding

**Q.** What about the Mean % WT Binding [29] of the same substance?
**A.** 3.9 % WT binding

**Q.** What about the Mean % WT Binding [30] of the same substance?
**A.** 1.6 % WT binding

**Q.** What about the Mean % WT Binding [31] of the same substance?
**A.** 8.2 % WT binding

**Q.** What about the Mean % WT Binding [32] of the same substance?
**A.** 107 % WT binding

**Q.** What about the Mean % WT Binding [33] of the same substance?
**A.** 1.6 % WT binding

**Q.** What about the Mean % WT Binding [34] of the same substance?
**A.** 4.7 % WT binding

**Q.** And the Mean % WT Binding [35]?
**A.** 15.1 % WT binding

**Q.** And the Mean % WT Binding [36]?
**A.** 3.6 % WT binding

**Q.** And the Mean % WT Binding [37]?
**A.** 1.2 % WT binding

**Q.** And the Mean % WT Binding [38]?
**A.** 0.5 % WT binding

**Q.** And the Mean % WT Binding [39]?
**A.** 18 % WT binding

**Q.** What about the Mean % WT Binding [40] of the same substance?
**A.** 0.9 % WT binding

**Q.** And the Mean % WT Binding [41]?
**A.** 0.3 % WT binding

**Q.** And the Mean % WT Binding [42]?
**A.** 31.7 % WT binding

**Q.** And the Mean % WT Binding [43]?
**A.** 4.3 % WT binding

**Q.** What about the Mean % WT Binding [44] of the same substance?
**A.** 0.1 % WT binding

**Q.** What about the Mean % WT Binding [45] of the same substance?
**A.** 77 % WT binding

**Q.** And the Mean % WT Binding [46]?
**A.** 1.6 % WT binding

**Q.** What about the Signal:Background (signal:background ratio) [47] of the same substance?
**A.** 32
